Test results taken from paper PMC10352297, “Determining the structure of the bacterial voltage-gated sodium channel NaChBac embedded in liposomes by cryo electron tomography and subtomogram averaging” (Scientific Reports, 2023).

Target: the molecule itself
Assay: cryo-EM structure; cryo electron tomography and subtomogram averaging of NaChBac in proteoliposomes (E. coli polar lipid extract, lipid-to-protein 2:1 wt/wt); polarized membrane, [K+]in 150 mM, [K+]out 3 mM, 1 uM valinomycin, -100 mV; 25 mM HEPES pH 7.0; 3116 particles, C1, 16.3 A

B1: His6-GFP^A206K-NaChBac (natural protein, Bacillus halodurans, UniProt Q9KCR8 1-274, looked up)
chain: MKMEARQKQNSFTSKMQKIVNHRAFTFTVIALILFNALIVGIETYPRIYADHKWLFYRIDLVLLWIFTIEIAMRFLASNPKSAFFRSSWNWFDFLIVAAGHIFAGAQFVTVLRILRVLRVLRAISVVPSLRRLVDALVMTIPALGNILILMSIFFYIFAVIGTMLFQHVSPEYFGNLQLSLLTLFQVVTLESWASGVMRPIFAEVPWSWLYFVSFVLIGTFIIFNLFIGVIVNNVEKAELTDNEEDGEADGLKQEISALRKDVAELKSLLKQSK
notes: NaChBac, prokaryotic voltage-gated sodium channel from Bacillus halodurans; cDNA for full-length NaChBac in pET21a; the tagged subunit is 55 kDa; the channel without tags is about 120 kDa as a tetramer; also called his-GFP-NaChBac; his-tagged GFP^A206K-NaChBac; source: E. coli C41(DE3), purified (Ni-NTA, SEC in DDM), reconstituted into liposomes of E. coli polar lipid extract; not shown: His6, …
**Q.** How did the “stoichiometry N” value turn out when B1 was run?
**A.** 4
